Measured values taken from patent US20240368269A1 (Memorial Sloan Kettering, published 2024).
Where a chain is given by its changes, count along the chain named.

T1: DLL3 (target in the Fab-Zap internalization assay) (UniProt Q9NYJ7 27-618, limits assumed)
T1 sequence (looked up): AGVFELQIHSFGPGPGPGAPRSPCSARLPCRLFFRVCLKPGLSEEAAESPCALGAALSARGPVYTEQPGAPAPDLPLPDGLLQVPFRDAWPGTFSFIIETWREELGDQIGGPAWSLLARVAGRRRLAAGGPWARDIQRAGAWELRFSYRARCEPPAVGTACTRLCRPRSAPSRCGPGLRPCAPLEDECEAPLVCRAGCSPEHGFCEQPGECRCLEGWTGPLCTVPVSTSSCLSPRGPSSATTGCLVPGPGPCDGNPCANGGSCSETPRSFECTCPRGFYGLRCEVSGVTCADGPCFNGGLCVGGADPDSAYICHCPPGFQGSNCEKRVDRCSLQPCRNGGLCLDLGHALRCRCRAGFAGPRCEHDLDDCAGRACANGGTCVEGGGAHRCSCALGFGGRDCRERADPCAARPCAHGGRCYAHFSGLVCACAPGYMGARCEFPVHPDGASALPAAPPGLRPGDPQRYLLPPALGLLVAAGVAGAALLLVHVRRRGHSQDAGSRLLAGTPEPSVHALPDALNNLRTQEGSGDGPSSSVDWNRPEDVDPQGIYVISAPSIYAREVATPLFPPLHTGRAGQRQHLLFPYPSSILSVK

T2: hDLL3 (human, UniProt Q9NYJ7 27-492, limits assumed)
T2 construct: also called human DLL3
T2 sequence: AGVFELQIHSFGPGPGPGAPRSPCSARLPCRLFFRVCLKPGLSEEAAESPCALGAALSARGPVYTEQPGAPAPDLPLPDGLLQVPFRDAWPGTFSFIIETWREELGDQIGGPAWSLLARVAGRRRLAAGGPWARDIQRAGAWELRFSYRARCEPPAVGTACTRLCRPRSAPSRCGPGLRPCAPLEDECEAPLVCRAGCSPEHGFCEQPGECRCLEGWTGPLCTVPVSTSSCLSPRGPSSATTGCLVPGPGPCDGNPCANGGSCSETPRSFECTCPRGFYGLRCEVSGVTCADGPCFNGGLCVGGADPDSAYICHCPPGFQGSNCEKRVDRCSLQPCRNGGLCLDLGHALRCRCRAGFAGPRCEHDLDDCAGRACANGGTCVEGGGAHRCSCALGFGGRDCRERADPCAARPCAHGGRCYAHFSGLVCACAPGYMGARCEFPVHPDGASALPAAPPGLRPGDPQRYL

B1: L22 (antibody, V domains shown)
VH: EVQLLESGGGLVQPGGSLRLSCAASGFTFSSYAMGWVRQTPGKGLEWVSTISGRGGDTYYADSVKGRFTISRDNSKNTLYLQMNSLRAEDTAIYYCAKERGLGFDYWGQGTLVTVSS
VL: DIVMTQTPLSLPVTPGEPASISCRSSQSLLDSDDGNTYLDWYLQKPGQSPQLLIYTLSYRASGVPDRFSGSGSGTDFTLKISRVEAEDVGVYYCMQHLEFPLTFGGGTKVEIK
B2: L12 (antibody, V domains shown)
VH: QVQLVQSGAEVKKPGASVKVSCKASGYTFTSYYMHWVRQAPGQGLEWMGIINPSGGSRSYAQKFQGRVTMTRDTSTSTVYMELSSLRSEDTAVYYCARQLELLGNAFDIWGQGTMVTVSS
VL: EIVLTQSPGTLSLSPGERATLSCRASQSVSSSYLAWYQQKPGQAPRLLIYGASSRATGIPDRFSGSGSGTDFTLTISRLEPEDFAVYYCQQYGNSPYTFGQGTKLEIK
B3: M11 (antibody, V domains shown)
VH: B2 VH with M34I, R58K, S77G, R98G
VL: not shown
B4: O24 (antibody, V domains shown)
VH: QVQLVQSGAEVKKPGASVKVSCKASGYTFTSYYLHWVRQAPGHGLEWMAIINPSGGSTSYAQKFLGRVTMTRDTSTNTVYMELSSLRSEDTAVYYCARERQQLDYYYFAMDVWGQGTTVTVSS
VL: DIQMTQSPSSLSASVGDRVTITCRASQGISNYLAWFQQKPGKAPKSLIYAASSLQSGVPSKFSGSGSGTDFTLTISSLQPEDFATYYCQQYNSYPPTFGQGTKVEIK
B5: P4 (antibody, V domains shown)
VH: EVQLVESGGGLVKPGGSLRLSCAASGFTFSFYSMNWVRQAPGKGLEWVSSISSSSSYIYYADSVKGRFTISRDNAKNSLYLQMNSLRAEDTAVYYCARNYDFWRGAFDIWGQGTMVTVSS
VL: not shown
B6: J8 (antibody, V domains shown)
VH: QVHLVQSGAEVKKPGASVKVSCKASGYTFTIYYIHWVRQAPGQGLEWMGIINPSGGSTSYAQKFQGRVTMTRDTSTSTVYMELSSLRSEDTAVYYCSGNDYVDYVTTDYYGMDVWGQGTTVTVSS
VL: B4 VL with Y94S, P96Y, V104L
B7: B2 (antibody, V domains shown)
VH: QVQLVQSGAEVKKPGASVKVSCKASGYTFTSYYMHWVRQAPGQGLEWMGIINPSGGSTSYAQKFRGRVTMTRDTSTSTVYMELSSLRSEDTAVYYCARGDYDILTDYYYNMDVWGQGTTVTVSS
VL: B4 VL with S10A, L11M, A43V, S46R, K61R, D70E, Q89L, Y91H, P96Y, V104L
notes: Purified hybridoma monoclonal antibody (Ablexis AlivaMab Kappa mice); format there not clear; also called 3-B2-A
B8: C22 (antibody, V domains shown)
VH: B2 VH with R58T, Q99V, L100A, E101D, L102I, L103V, N105A, A106T, I109Y, M115L
VL: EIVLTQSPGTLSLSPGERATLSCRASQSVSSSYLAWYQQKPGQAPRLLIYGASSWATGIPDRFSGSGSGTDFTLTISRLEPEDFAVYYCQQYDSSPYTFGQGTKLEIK
B9: F21 (antibody, V domains shown)
VH: EVQLVESGGGLVQPGGSLRLSCAASGFTFSSYWMSWVRQAPGKGLEWVANIKQDGSEKYYVDSVKGRFTISRDNAKNSLYLQMNSLRAEDTAVYYCAREWLRFGGLVYWGQGTLVTVSS
VL: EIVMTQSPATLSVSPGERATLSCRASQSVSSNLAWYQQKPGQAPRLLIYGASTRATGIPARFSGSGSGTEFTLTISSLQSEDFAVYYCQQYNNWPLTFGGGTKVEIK
B10: E23 (antibody, V domains shown)
VH: QVQLVQSGAEVRKPGASVKVSCKASGYTFTGYYMHWVRQAPGQGLEWMGWINSYSGGANYAQKFQDRVTMTRDTSVSTASMELSRLRSDDTAVYYCARDGSGWYGSYFDFWGQGTLVTVSS
VL: DIVMTQTPLSSPVTLGQPASISCRSSQSLVHSDGNTYLSWLQQRPGQPPRLLIYKISNRFSGVPDRFSGSGAGTDFTLKISRVEAEDVGFYYCIQTTQFPLTFGGGTKVEIK
B11: B22 (antibody, V domains shown)
VH: EVQLVESGGGLVQPGGSLRLSCAASGFTFNNFWMSWVRQAPGKGLEWVANIKQDGSEKYYVDSVKGRFTISRDNAKNSLYLQMNSLRAEDTAVYYCARESYFDLWGRGTLVTVSS
VL: QAVVTQESALTTSPGETVTLTCRSSTGAVTTSNYANWVQEKPDHLFTGLIGGTNNRAPGVPARFSGSLIGDKAALTITGAQTEDEAIYFCALWYSNRWVFGGGTKLTVL
B12: E9 (antibody, V domains shown)
VH: QVQLVQSGAEVKKPGASVKVSCKASGYTFTSYYMHWVRQAPGQGLEWMGVINSSGGSTSYAQKFQGRVTMTRDTSTSTVYMDLSSLRSEDTAVYYCARGYCTNGVYYDEDFDYWGQGTLVTVSS
VL: B4 VL with N31H, K45T, P96L, Q100G
B13: G23 (antibody, V domains shown)
VH: QVQLVQSGAEVKKPGASVKVSCKASGYTFTSYYIHWVRQAPGQGLEWMGIIDPSDGSTNYAQKFQGRVTMTRDTSTSTVYMELSSLRSEDTAVYYCARDREYNYYGLDVWGQGTTVTVSS
VL: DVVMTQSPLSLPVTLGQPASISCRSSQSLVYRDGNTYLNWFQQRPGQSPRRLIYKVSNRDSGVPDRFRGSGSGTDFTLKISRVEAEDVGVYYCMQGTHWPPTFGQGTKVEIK
B14: I1 (antibody, V domains shown)
VH: EVQLVESGGGLVKPGGSLRLSCAASGFTFSNTWMSWVRQAPGKGLEWVGRIKSKSDGGTTDYAAPVKGRFTISRDDSKNTLYLQMNSLKTEDTAVYYCTQYYWNSFDYWGQGTLVTVSS
VL: not shown

Target: T1, DLL3 (target in the Fab-Zap …)
Assay: cell-based or functional assay

Row | Binder | Percent Max Killing (Fab-Zap internalization assay, 10 ug/ml) [%]
1 | B1 | 82
2 | B2 | 61
3 | B3 | 65.2
4 | B4 | 80.3
5 | B5 | 68
6 | B6 | 64
7 | B7 | 71.4
8 | B8 | 69.1
9 | B9 | 20
10 | B10 | 88.7
11 | B11 | 61.9
12 | B12 | 61.4
13 | B13 | 94
14 | B14 | 97

Target: T2, hDLL3
Assay: Affinity hDLL3 of Table 30; method not given

Row | Binder | Kd [nM]
15 | B7 | 3.55
